# What was measured:
# [1] = Hydrophobic interaction chromatography (HIC) assay; type: physicochemical; settings: eight drug units per antibody, FIG. 4
# Procedure: ADC analysis was performed using hydrophobic interaction chromatography (HIC). Elution was performed using 0 to 100% Mobile Phase B (MPB), where Mobile Phase A (MPA) consisted of 1.5 M ammonium sulfate and 0.025 M sodium phosphate, and MPB consisted of 0.025 M sodium phosphate and 25% isopropanol. The sample loading volume was approximately 20 μg, and gradient elution was completed in 15 minutes. 280 nm UV was used for detection, and the stronger the […] sample, the later the peak produced.
# Following complete reduction of IgG1 antibody to 8 thiols per antibody according to General Procedure A, corresponding antibody-drug conjugates were prepared via non-specific coupling. ADCs with acidic stabilization junctions and conventional junctions ADC (i.e., MC-VC-PAB-MMAE) with eight drug units per antibody were further separated and purified via hydrophobic interaction chromatography and hydrophobic interaction chromatography (HIC) was used to perform an ADC analysis according to General Procedure C. ADCs with greater hydrophobicity, or larger drug/molecule ratios eluted at later retention times.
# [2] = SEC-HPLC detection of degree of aggregation; type: physicochemical; settings: 280 nm
# Procedure: ADC samples obtained via conjugation were centrifuged at 14,000 rpm for five minutes and the supernatant was taken for analysis. Instrument: Waters e2695 (2489UV/Vis) Chromatography column: TSKgel G3000SWXL (7.8×300 mm, 5 μm) Mobile phase: A: 50 mM PB, 300 mM NaCl, 200 mM Arg, 5% IPA, pH 6.5 Mobile Phase A was eluted isocratically for 30 minutes; flow rate: 0.714 ml/min, column temperature: 25° C., detection wavelength: 280 nm.
# [3] = Plasma stability in vitro (DAR by RP-HPLC after incubation in human plasma); type: in vitro ADME; settings: 37° C.
# Procedure: A fixed amount of ADC sample was added to human plasma for which human IgG had already been removed, with each ADC tube prepared in triplicate; next, incubation in a 37° C. water bath was performed for 0 hours and 72 hours, after which the ADC sample was removed and 100 μl of Protein A (MabSelect SuRe™ LX Lot: #10221479GE, washed with PBS) was added to each tube; adsorption was then allowed to proceed under agitation on a vertical mixer for two hours, followed by washing and elution to obtain incubated ADC; the plasma stability of each incubated ADC sample was then determined via RP-HPLC.
substance,measurement,setting,value
MC-VC-PAB-MMAE,"HIC retention time (hydrophobicity, in words)",[1],longest retention time
same,Aggregation Rate,[2],32.46%
same,Monomer Ratio,[2],67.51%
same,0 h DAR,"[3]; human plasma with human IgG removed, 0 hours, RP-HPLC",7.2
same,72 h DAR,"[3]; human plasma with human IgG removed, 72 hours, RP-HPLC",2.3
same,drug loss / change in DAR during plasma incubation (in words),"[3]; human plasma, 72 hours",very significant reduction in DAR
